Results: the supplement of paper PMC9170038

Tested on: MS2 coat protein
Experiment: apparent KD of MS2 coat protein; designed switch direction (-1 OFF switch, 1 ON switch): 1; higher = weaker reporter binding
Summary of the method: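 The reported apparent KD is a per-design median over clusters, from curve fits of normalised cluster fluorescence. Protein titrations used SNAP-549-labelled MS2 coat protein, doubled from 0.7 or 1.5 nM to 3 µM, in Tris-HCl pH 7.5 buffer with KCl, MgCl2, BSA, DTT, tRNA and Tween-20, with no input, 200 uM small-molecule ligand, or an oligonucleotide input. The RNA switches were transcribed on Illumina chips by stalled E. coli RNA polymerase.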

[1] = input ligand: microRNA oligo, concentration not stated
[2] = Eterna round: R95, input ligand: FMN 200 uM
[3] = Eterna round: R95, input ligand: microRNA oligo, concentration not stated
[4] = Eterna round: R95, input ligand: none

Sequence | apparent KD of MS2 coat protein (input ligand: FMN 200 uM) [nM] | apparent KD of MS2 coat protein [1] [nM] | apparent KD of MS2 coat protein (input ligand: none) [nM] | apparent KD of MS2 coat protein [2] [nM] | apparent KD of MS2 coat protein [3] [nM] | apparent KD of MS2 coat protein [4] [nM]
GCUCGCGGCACAGGAUAUGGGUGCCUGUACAUGAGGAUCACCCAUGUUAAGGGACGGAUUACGAACCAGAAGGGUGUGGCAAGC [Reonisma] (Eterna round: R96, puzzle: Same State NG 2) | 95.5 | 294 | 1060 | – | – | –
UAGUACAAGCUUUUUGCCCGUCUUAUUUAACAUGAGGAUCACCCAUGUAAGGUGAAAGUUAGAGAGUGGAGGUUGAA [JR_SHM208A_Sub049] (puzzle: Sensor for hsa-mir-208a) | – | – | – | 205 | 227 | 249
GCCGCGUUUCACGCCUACAUGAGGAUCACCCAUGUAUGUAGGCAGGAUAUCGUUUGCUUUGCAAACGAGAAGGGCUGUAGUGGC [salish99_SSNG3_R04_007] (Eterna round: R96, puzzle: Same State NG 3) | 41.7 | 92.3 | 116 | – | – | –
CUGCUACAUGAGGAUCACCCAUGUUGGAGUGAUGCAGGAUAUGUGUGACCAGAAGAUGAAACAGAAGGGCAAAGAA [JR_SS!_Sub004] (puzzle: Same State 1) | – | – | – | 96.2 | 75.7 | 101
UGGCUCAGACGAGGAUAUAUGUCUCGAGCUUCGGCUCGAGACAUGAGGAUCACCCAUGUAAUAACAUAGAAGGUGUCUGAGCCU [SSNG2/1-C3] (Eterna round: R96, puzzle: Same State NG 2) | 42.9 | 226 | 388 | – | – | –
GGCCAGAGUCAAGGAUAUGCUACCGUUUCGGUAGCAGAAGGUGAUCACAUGAGGAUCACCCAUGUUUACUGGGAGACCAUGGCC [JL SSNG1 3.69] (Eterna round: R96, puzzle: Same State NG 1) | 219 | 136 | 112 | – | – | –
CUGCUACAUGAGGAUCACCCAUGUUGGAGUGAUGCAGGAUAUGUGGGACCAGAAGAUGAAACAGAAGGGCAAAGAA [JR_SS!_Sub005] (puzzle: Same State 1) | – | – | – | 98.4 | 119 | 97.6
CACAUGAGGAUCACCCAUGUCAGACAAAGGAGCAUGACGCUACAGGAUAUGUGAGCGACUAACGAAUAGAAGGGUAGCCAUCAC [Eternabot solution 27] (Eterna round: R96, puzzle: Same State NG 3) | 27.5 | 20.8 | 29.3 | – | – | –
ACAUGAGGAUCACCCAUGUCUUUAUCCGAUUCUUCAUUUACGUAGGAUAUCGUCUAUACUAUCAUCGAGAAGGACGUUCUUUAA [JR_SSNG3_Sub070] (Eterna round: R96, puzzle: Same State NG 3) | – | 13.9 | – | – | – | –
GUGUGUUGCGGGCAGGAUAUGUAUUUGAGUACAUGAGGAUCACCCAUGUGCGCCUGUUUCAGGCGACAGAAGGGCCUAUCGCGAC [JL-ss2-3.27 ViennaUCT mod] (puzzle: Same State 2) | – | – | – | – | 106 | –
AAUUAAGAUCUAGGAUAUCACGUCGAUUAGACGUGAGAAGGAGAUCAUAACAUGAGGAUCACCCAUGUAUUACAUGAAUUAAUU [SSNG1/6-B2] (Eterna round: R96, puzzle: Same State NG 1) | – | 23.4 | – | – | – | –
GGAGCCGGCCUAGGAUAUUUCAUUUAAAAACAUGAGGAUCACCCAUGUAGGCCAGAAGGCCUUGGGAAGAAGGAGGUCGGCUCC [Loop Effect - U24,U25] (Eterna round: R96, puzzle: Same State NG 2) | 11.2 | 22.7 | 44.2 | – | – | –
AAAAAACAUGAGGAUCACCCAUGUCUUUUGACAUGAGGAUAUGUACAGACUUCGGUCUGUACAGAAGGCAUGUAAA [SS1 - 1028] (Eterna round: R96, puzzle: Same State 1) | – | 336 | – | – | – | –
ACAUGAGACUUAGGAUAUGUUGUACCUACAUGUGACAUGAGGAUCACCCAUGUGGUAAGUAUGAGGCAGAAGGAAGAGAUAUGU [Equivalence 39 - Jieux - Same State NG 2] (Eterna round: R96, puzzle: Same State NG 2) | 23.5 | 45.9 | 73.1 | – | – | –
AGAGGAGGAGCAGGAUAUGCGAAGAAGAACGAGGUAGAAGGGCUCAUGCGAUGACAUGAGGAUCACCCAUGUACCGCGCGAGGA [AK SSNG1-V2-8.2] (Eterna round: R96, puzzle: Same State NG 1) | 207 | 209 | 142 | – | – | –
GCCAUCCAAUGAGGAUAUGGCACCGUUUCGGUGCCAGAAGGCAUGUCAAUUGACAUGAGGAUCACCCAUGUAUUAUGGAUGGCA [JL Fiskers NG1ss - 33 mod 2] (Eterna round: R96, puzzle: Same State NG 1) | 101 | 739 | 1390 | – | – | –
UCUUGGUUUUUGCUCGUUUUUUGUGUUGAACAUGAGGAUCACCCAUGUAUUGUACAAUCCAGUUUGAUAAUGGUCCG [JR_SHM208A_Sub045] (puzzle: Sensor for hsa-mir-208a) | – | – | – | 140 | 112 | 167
UAAAGAUAGCGAGGAUAUCGCGAGGAUCACCCGUGAGAAGGCGCAGAGCCGAGGAUCACCCGGCUGAUCCUGAGGAGGAGGUCA (Eterna round: R96, puzzle: Same State NG 1) | 108 | 197 | 249 | – | – | –
UGAAUAGUGAUAGGAUAUACAUGAGGAAUCCUCGUAGAAGGAUCACGACAUGAGGAUCACCCAUGUAGCCGUCAGAAGACGGCA [Mat - Same State NG 1 - JL mod - D60] (Eterna round: R96, puzzle: Same State NG 1) | 450 | 345 | 2610 | – | – | –
GAGGAUGAUUUACAGGAUAUAUAGAAGAUGACAUGAGGAUCACCCAUGUAAGAGAAAGGAGGGAGAUAGAAGGGUAAGGGAUGUG [JR_SS2_Sub40] (puzzle: Same State 2) | – | – | – | 37.2 | 24.5 | 42.3
GCUACGGACGUAGGAUAUGUAGGAUAUGGUGAGAGCUAAGCUUGGAAGUCACUUCAACCAGAAGGACAGAAGGACGCCGUGAGG [pwkr ssNG2 2FMN + F9.18] (Eterna round: R96, puzzle: Same State NG 2) | 241 | 13.4 | 52.2 | – | – | –
AACAUGAGGAUCACCCAUGUCAGGCCGCCGGCCUACAUGAGGAAGGAUAUAGCCUCGAAAAUAGGCUAGAAGGUCCUCAUGAAU [Orises] (Eterna round: R96, puzzle: Same State NG 3) | 78.6 | 6.35 | 23.2 | – | – | –
CGUCGUUUGAUAGGAUAUCGCUUUACAUGAGGAUCACCCAUGUUUACCUCGCUGGUUUUUCUUUCCGAGAAGGAUUCUGAUGUU [salish99_SSNG02_r04_030] (Eterna round: R96, puzzle: Same State NG 2) | 43.4 | 31.6 | 40.4 | – | – | –
